Data published in publication PMC6825541.

Target: recombinant Ebola virus (EBOV) glycoprotein (Zaire ebolavirus (EBOV)) (UniProt Q05320)
Assay: SEC

Question: How did the stoichiometry N turn out when “recombinant Ebola virus (EBOV) glycoprotein (from UniProt Q05320) (natural protein)” was run?
Answer: Its stoichiometry N is 3.
